4 molecules from patent US20240343803A1 (SHANDONG SIMCERE BIOPHARMACEUTICAL, published 2024) can be followed below.

The chains are these.
T1: Full-length human TIGIT on CHO-K1 cells (CHO-K1 human TIGIT) (human, UniProt Q495A1 22-244)
T1 construct: NCBI XP_024309156.1; the entry includes the signal peptide (limits not recoverable); The strain (high, medium, low) is named under assay; also called high expression strain 1D2; medium expression strain 2D10
T1 sequence: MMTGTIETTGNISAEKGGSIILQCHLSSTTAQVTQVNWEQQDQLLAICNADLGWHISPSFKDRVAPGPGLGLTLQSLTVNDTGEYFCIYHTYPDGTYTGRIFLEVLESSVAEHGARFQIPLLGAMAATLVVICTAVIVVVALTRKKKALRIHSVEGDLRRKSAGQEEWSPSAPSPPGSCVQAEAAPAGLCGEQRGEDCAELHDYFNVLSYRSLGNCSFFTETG

B1: TIGIT-002-H4L3 (antibody, V domains shown)
VH: EVQLQESGPGLVKPSETLSLTCAVSGYSITSDSWNWIRQPPGKKLEYIGYISYSGNTYYNPSLKSRVTISRDTSKNQFSLKLSSVTAADTAVYYCARLDFSNYGGAVDYWGQGTTVTVSS
VL: DIVMTQSPDSLAVSLGERATINCKASQNVRTAVAWYQQKPGQSPKLMIYSASYRYTGVPDRFSGSGSGTDFTLTISSLQAEDVAVYYCQQYYTTPWTFGGGTKVEIK
notes: Humanized anti-TIGIT antibody
B2: TIGIT-005-H2L1d (antibody, V domains shown)
VH: EVQLVQSGAEVKKPGASVKVSCKASGYAFTNYLIEWVRQAPGQRLEWMGVINPGSGGTNYKEKFKGRVTITADKSSSTAYMELSSLRSEDTAVYYCARGEYFFFDYWGQGTTVTVSS
VL: DIVMTQSPDSLAVSLGERATINCKASQHVSNAVAWYQHKPGQSPKLLIYSASYRYTGVPDRFSGSGSGTDFTLTISSLQAEDVAVYYCQQHYNTPHTFGGGTKVEIK
notes: Humanized anti-TIGIT antibody with NG-site mutation in VL
B3: TIGIT-006-H5L3 (antibody, V domains shown)
VH: EVQLQESGPGLVKPSETLSLTCAVSGYSMTSDYWNWIRQPPGKKLEYIGYISYSGRTYYNPSLKSRVTISRDTSKNQFSLKLSSVTAADTAVYYCARGDYSNYGGAMYDWGQGTTVTVSS
VL: DIVMTQSPDSLAVSLGERATINCRASQGVSTTIAWYQQKPGQSPKLLIYSASYRYTGVPRFSGSGSGTDFTLTISSLQAEDVAVYYCQQYYSSPFTFGGGTKVEIK
notes: Humanized anti-TIGIT antibody
B4: TIGIT-070-H1L1 (antibody, V domains shown)
VH: EVQLVQSGAEVKKPGASVKVSCKASGYTFTNYYMHWVRQAPGQRLEWMGRIDPDSGGSKYNEKFKSRVTITVDKSASTAYMELSSLRSEDTAVYYCAREGHYGFYSDYWGQGTTVTVSS
VL: DIQMTQSPSSLSASVGDRVTITCRVSENIYSYLAWYQQKPGKSPKLLIYNAKTLAEGVPSRFSGSGSGTDFTLTISSLQPEDFATYYCQHHYGNPLTFGPGTKVDIK
notes: Humanized anti-TIGIT antibody

In this test the target is T1, Full-length human TIGIT on CHO-K1 cells …. Description: FACS; blocking of Bio-CD155-His binding to CHO-K1 human TIGIT cells. In short, it runs like this: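 Bound ligand was measured by flow cytometry on a BD Canto II, using CHO-K1 cells expressing human TIGIT at 2×10⁵/40 μL in 1% BSA-PBS. Equal volumes of antibody, as a 12-point 3-fold dilution series starting at 210 nM, and biotinylated CD155-His, diluted to 3 μg/mL, were added to the cells and held at 4° C for 60 min. APC-streptavidin (1:1700) was used for detection at 4° C for 40 min. IC50 values were obtained from the inhibition curves.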
Background: A flow cytometer gives signals particle by particle.
One may read the IC50 as the midpoint of a concentration-inhibition curve. A low value points to greater potency. B1 registered an IC50 of 137 pM. Take B2: the IC50 turned out to be 150 pM. In the case of B3 it was 171 pM; in that of B4, 212 pM.
